Like-named read-outs stand apart in the source and are kept apart here.

Experiment [1] deals with T1, human PD-L1 on MDA-MB-231 cells (human, UniProt Q9NZQ7 19-290).
T1 construct: whole, on cells
Nature of the experiment: FACS, MDA-MB-231 cells (human PD-L1). The protocol:
(§1) This example is intended to investigate the in vitro binding activity of OX40×TAA bispecific antibodies obtained in Example 9 to tumor-associated antigens (TAAs). […] Briefly, those cells were digested, resuspended in a complete medium, and washed with PBS, and the cell density was adjusted to 1×10⁶ cells/ml with PBS. The cells were seeded in a 96-well V-bottom plate (Corning, #3894) at 100 μL/well, and centrifuged, and then the supernatant was discarded. Then, the test antibodies diluted in a 3-fold gradient were added at 100 μL/well. The cells were incubated at 4° C. for 1 h away from light. Thereafter, the cells in each well were rinsed twice with 100 μL of pre-cooled PBS, and centrifuged at 500 g at 4° C. for 5 min, and then the supernatant was discarded. […] The plate was incubated away from light at 4° C. for 30 min. The cells in each well were rinsed twice with 100 μL of pre-cooled PBS, and centrifuged at 500 g at 4° C. for 5 min, and then the supernatant was discarded. Finally, the cells in each well were resuspended in 200 μL of pre-cooled PBS, and the fluorescence signal values were read using NovoCyte flow cytometer (ACEA Biosciences).

Experiment [2] concerns the target T2, human OX40 on cells (CHO-K1/hu OX40) (human, UniProt P43489 29-277).
T2 construct: whole, on cells; Also used here for OX40 on the HEK293/OX40/NF-kb reporter cells and on human T cells in the functional assays; also called CHO-K1/OX40; human OX40 cells
T2 sequence (looked up): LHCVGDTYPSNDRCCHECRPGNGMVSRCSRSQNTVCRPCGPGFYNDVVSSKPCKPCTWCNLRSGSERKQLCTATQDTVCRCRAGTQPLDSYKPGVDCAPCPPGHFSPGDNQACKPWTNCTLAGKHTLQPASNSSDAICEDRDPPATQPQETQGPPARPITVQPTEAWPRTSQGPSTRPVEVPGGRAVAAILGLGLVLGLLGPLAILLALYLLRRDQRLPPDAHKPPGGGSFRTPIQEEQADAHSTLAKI
Nature of the experiment: FACS, CHO-K1/hu OX40 cells. The protocol: This example is intended to investigate the in vitro binding activity of OX40×TAA bispecific antibodies obtained in Example 9 to human OX40. The antibody binding assay at the cellular level was performed using a CHO-K1 cell strain overexpressing human OX40 (CHO-K1/hu OX40). Briefly, CHO-K1/hu OX40 cells were digested, resuspended in an F12K complete medium, and washed with PBS, and the cell density was adjusted to 1×10⁶ cells/ml with PBS. The cells were seeded in a 96-well V-bottom plate (Corning, #3894) at 100 μL/well, followed by the addition of test antibodies diluted in a 3-fold gradient at concentrations that were 2 times the final concentrations at 100 μL/well. The cells were incubated at 4° C. for 1 h away from light. Thereafter, the cells in each well were rinsed twice with 100 μL of pre-cooled PBS, and centrifuged at 500 g at 4° C. for 5 min, and then the supernatant was discarded. […] The plate was incubated away from light at 4° C. for 30 min. The cells in each well were rinsed twice with 100 μL of pre-cooled PBS, and centrifuged at 500 g at 4° C. for 5 min, and then the supernatant was discarded. Finally, the cells in each well were resuspended in 200 μL of pre-cooled PBS, and the fluorescence signal values were read using NovoCyte flow cytometer (ACEA Biosciences).

For experiment [3], the target named is T2, human OX40 on cells (CHO-K1/hu OX40). In words: FACS, blocking of biotin-human OX40L on CHO-K1/hu OX40 cells.
Experiment [4] has the same target. Nature of the experiment: FACS, CHO-K1/hu OX40 cells. A digest of the protocol:
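Binding of anti-human OX40 HCAb antibodies measured by flow cytometry on CHO-K1 cells stably overexpressing human OX40. Cells incubated with 3-fold serially diluted antibodies 1 h at 4 °C in the dark, washed, then secondary staining 30 min at 4 °C; fluorescence read by FACS.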
This is another data set of the same source.

Experiment [5] concerns the target T3, human OX40 protein (Acro biosystem, #OX0-H5224) (human, UniProt P43489 29-216).
T3 construct: Bought recombinant protein
T3 sequence (looked up): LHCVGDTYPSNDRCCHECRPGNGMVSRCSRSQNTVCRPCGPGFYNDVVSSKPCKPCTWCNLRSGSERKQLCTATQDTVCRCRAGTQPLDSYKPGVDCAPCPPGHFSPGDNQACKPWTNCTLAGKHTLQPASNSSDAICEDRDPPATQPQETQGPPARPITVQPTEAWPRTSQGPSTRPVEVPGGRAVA
In words: ELISA, coated human OX40 protein.

For experiment [6], the target named is T3, human OX40 protein (Acro biosystem, …). Nature of the experiment: ELISA, coated human OX40 protein. How it is done:
This example is intended to investigate the in vitro binding activity of the anti-OX40 HCAb monoclonal antibodies prepared in Example 1 to human and cynomolgus monkey OX40 proteins. The antibody binding assay at the protein level was performed using a human OX40 protein (Acro biosystem, #OX0-H5224) and a cynomolgus monkey OX40 protein (Novoprotein, #CB17). Briefly, a 384-well plate (PerkinElmer, #6007509) was coated with 1 μg/mL human OX40 protein and a cynomolgus monkey OX40 protein dissolved in PBS at 20 μL/well, and incubated at 4° C. overnight. The next day, the 384-well plate was washed three times with PBS containing 0.05% Tween (MEDICAGO, #09-9410-100), and blocked with PBS containing 2% milk (Bio-Rad, #170-6404) at 37° C. for 1 h. […] The plate was added with a stop buffer (BBI life sciences, #E661006-0200) at 20 μL/well, and read for OD₄₅₀₋₆₅₀ values using a plate reader (Molecular Devices, model: SpectraMax Plus). The values were analyzed with Graphad 8.0 and plotted.
The source holds these as a separate data set.

In experiment [7] the target is T2, human OX40 on cells (CHO-K1/hu OX40). In words: cell-based or functional assay.
For experiment [8], the target named is T4, cynomolgus monkey OX40 protein (Novoprotein, #CB17) (cynomolgus monkey).
T4 construct: Bought recombinant protein; also called cyno OX40
In words: ELISA, coated cyno OX40 protein.

For experiment [9], the target named is T5, human PSMA on LNCAP cells (human, UniProt Q04609 1-750).
T5 construct: whole, on cells
T5 sequence (Q04609 whole entry): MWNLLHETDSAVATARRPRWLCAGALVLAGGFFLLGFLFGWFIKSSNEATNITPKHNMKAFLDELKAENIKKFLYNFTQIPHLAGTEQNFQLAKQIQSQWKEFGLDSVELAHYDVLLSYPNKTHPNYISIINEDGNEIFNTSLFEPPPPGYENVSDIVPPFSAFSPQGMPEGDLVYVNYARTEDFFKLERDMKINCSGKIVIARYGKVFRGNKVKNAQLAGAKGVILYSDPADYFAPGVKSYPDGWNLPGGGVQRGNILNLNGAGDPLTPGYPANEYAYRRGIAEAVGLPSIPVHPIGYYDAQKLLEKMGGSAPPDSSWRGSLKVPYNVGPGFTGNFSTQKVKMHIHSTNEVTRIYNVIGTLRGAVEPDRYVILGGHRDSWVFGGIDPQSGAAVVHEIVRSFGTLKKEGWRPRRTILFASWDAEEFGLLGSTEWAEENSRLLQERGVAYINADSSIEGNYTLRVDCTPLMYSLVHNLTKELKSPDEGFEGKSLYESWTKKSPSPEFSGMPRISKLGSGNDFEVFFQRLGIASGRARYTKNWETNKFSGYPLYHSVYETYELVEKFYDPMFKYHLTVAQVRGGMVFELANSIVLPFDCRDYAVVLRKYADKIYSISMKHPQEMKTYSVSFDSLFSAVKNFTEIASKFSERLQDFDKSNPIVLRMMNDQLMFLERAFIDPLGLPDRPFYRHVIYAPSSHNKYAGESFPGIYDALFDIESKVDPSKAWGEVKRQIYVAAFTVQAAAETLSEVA
In words: FACS, LNCAP cells (human PSMA). The protocol: as §1

T1 sequence (Q9NZQ7 19-290): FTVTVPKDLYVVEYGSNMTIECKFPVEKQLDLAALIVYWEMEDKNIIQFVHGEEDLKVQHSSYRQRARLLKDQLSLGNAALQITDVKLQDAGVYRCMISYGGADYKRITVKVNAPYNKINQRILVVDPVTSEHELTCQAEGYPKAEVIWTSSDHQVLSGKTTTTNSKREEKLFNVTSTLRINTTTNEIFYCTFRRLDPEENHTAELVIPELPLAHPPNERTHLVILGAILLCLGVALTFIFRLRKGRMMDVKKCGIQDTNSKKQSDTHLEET

B1: PR003789 (bispecific antibody, human IgG1, kappa, L234A L235A)
light: DIQMTQSPSTLSASVGDRVTVTCRASQSIYIWLAWYQQKPGKAPNLLIYKASSLETGVPSRFSGSGSGTEFTLTISSLQPDDFATYYCQQYYGSSRTFGQGTKVEIKRTVAAPSVFIFPPSDEQLKSGTASVVCLLNNFYPREAKVQWKVDNALQSGNSQESVTEQDSKDSTYSLSSTLTLSKADYEKHKVYACEVTHQGLSSPVTKSFNRGEC
heavy: EVQLVESGGGLVQPGGSLRLSCAASGFTFSSYWMSWVRQAPGKGLEWVANIKQEGSEKYYVDSVKGRFTISRDNAKNSLYLQMNSLRAEDTAVYYCARDRAVAGAFDIWGQGTMVTVSSASTKGPSVFPLAPSSKSTSGGTAALGCLVKDYFPEPVTVSWNSGALTSGVHTFPAVLQSSGLYSLSSVVTVPSSSLGTQTYICNVNHKPSNTKVDKKVEPKSCDKTHTCPPCPAPEAAGGPSVFLFPPKPKDTLMISRTPEVTCVVVDVSHEDPEVKFNWYVDGVEVHNAKTKPREEQYNSTYRVVSVLTVLHQDWLNGKEYKCKVSNKALGAPIEKTISKAKGQPREPQVYTLPPSREEMTKNQVSLTCLVKGFYPSDIAVEWESNGQPENNYKTTPPVLDSDGSFFLYSKLTVDKSRWQQGNVFSCSVMHEALHNHYTQKSLSLSPGAEPKSSDKTHTPPPPPEVQLLESGGGLVQPGGSLRLSCAASGFTFSSYAMSWVRQAPGKGLEWVSAISGRGGSTFYADSVRGRFTISRDNSKNTLYLQMNSLRAEDTAMYYCVDGTTGTTDVDYWGQGTLVTVSS
notes: IgG-VH tetravalent symmetric structure: PR000265 IgG (anti-PD-L1) with the VH of PR002067 at the C-terminus via linker H1_15; human IgG1 Fc (L234A, L235A, P329G); also called PD-L1xOX40 bispecific antibody
The molecule B1 yielded a concentration giving a half-maximal response (EC50) in experiment [1] of 1.04 nM. Also, in experiment [2], the 50% effective concentration (EC50) was 3.98 nM and the “Maximum MFI” value worked out at 287000 MFI.

B2: PR000265 (antibody, human IgG1, kappa, N297A, V domains shown)
VH: EVQLVESGGGLVQPGGSLRLSCAASGFTFSSYWMSWVRQAPGKGLEWVANIKQEGSEKYYVDSVKGRFTISRDNAKNSLYLQMNSLRAEDTAVYYCARDRAVAGAFDIWGQGTMVTVSS
VL: DIQMTQSPSTLSASVGDRVTVTCRASQSIYIWLAWYQQKPGKAPNLLIYKASSLETGVPSRFSGSGSGTEFTLTISSLQPDDFATYYCQQYYGSSRTFGQGTKVEIKR
notes: H2L2 parental antibody against PD-L1; also called anti-PD-L1 monoclonal antibody; H2L2 antibody
As for B2, it took 0.605 nM to reach a half-maximal effect in experiment [1] (EC50).

B3: PR002055 (antibody, human IgG1, V domains shown)
VH: EVQLLESGGGLVQPGGSLRLSCAASGLTFSSYAMSWVRQAPGKGLEWISAISGGGGSTYYADSVRGRFTISRDNSKNTLYLQMNSLRAEDTAVYYCANGMTGSTDVDYWGQGTLVTVSS
notes: no light chain; also called anti-OX40 HCAb antibody
Take B3: in experiment [3], the midpoint of inhibition, the IC50, lay at 59.9 nM and the “Maximum inhibition rate (%)” value amounted to 19%. Also, in [4], the EC50 was 3.18 nM and the “Maximum MFI” value is 2240 MFI. In [5], the EC50 was 0.0268 nM and the “Maximum OD” value is 1.41 OD. Besides, in [6], the EC50 was less than 0.05 nM. For the same molecule, in experiment [7], the “EC50, HEK293/OX40/NF-kb luciferase reporter” value was 4.66 nM and the “Maximum fluorescence signal value, HEK293/OX40/NF-kb luciferase reporter” value turned out to be 141000 luminescence. In experiment [8], the response was half-maximal at 0.0452 nM (EC50) and the “Maximum OD” value came out at 1.74 OD.

B4: PR004284 (bispecific antibody, human IgG1, kappa, L234A L235A)
light: DIQMTQSPSSLSASIGDRVTITCRASQSINSYLNWYQQKPGKAPKLLIYTASSLLSGVPSRFSASGSWTDFSLTISSLQPEDFATYYCQQSFSTPYTFGQGTNLEIKRTVAAPSVFIFPPSDEQLKSGTASVVCLLNNFYPREAKVQWKVDNALQSGNSQESVTEQDSKDSTYSLSSTLTLSKADYEKHKVYACEVTHQGLSSPVTKSFNRGEC
heavy: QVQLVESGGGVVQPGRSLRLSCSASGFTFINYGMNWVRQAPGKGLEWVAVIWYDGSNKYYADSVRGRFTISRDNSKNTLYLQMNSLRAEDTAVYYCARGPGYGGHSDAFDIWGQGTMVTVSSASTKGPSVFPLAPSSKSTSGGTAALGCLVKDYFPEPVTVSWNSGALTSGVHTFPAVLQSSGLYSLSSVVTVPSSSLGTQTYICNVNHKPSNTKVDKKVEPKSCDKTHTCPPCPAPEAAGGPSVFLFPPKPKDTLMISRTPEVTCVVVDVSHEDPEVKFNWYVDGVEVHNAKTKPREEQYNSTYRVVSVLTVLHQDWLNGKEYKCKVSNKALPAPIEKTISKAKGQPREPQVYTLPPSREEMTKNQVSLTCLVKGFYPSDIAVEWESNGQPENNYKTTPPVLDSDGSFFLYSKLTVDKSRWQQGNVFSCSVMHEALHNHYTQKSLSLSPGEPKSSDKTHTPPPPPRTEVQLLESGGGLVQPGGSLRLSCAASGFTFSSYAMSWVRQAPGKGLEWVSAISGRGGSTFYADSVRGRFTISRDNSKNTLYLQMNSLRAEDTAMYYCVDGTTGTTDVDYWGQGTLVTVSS
notes: IgG-VH tetravalent symmetric structure: PR001331 IgG (anti-PSMA) with the VH of PR002067 via linker H1_15-RT; human IgG1 Fc (L234A, L235A); also called PSMAxOX40 bispecific antibody
For the molecule B4, in experiment [2], the EC50 came out at 4.96 nM and the “Maximum MFI” value amounted to 287000 MFI. For the same molecule, the response in [9] was half-maximal at 6.7 nM (EC50).

(Values after US20230295324A1 (published 2023).)
